According to US20220184222A1, “BICYCLE TOXIN CONJUGATES AND USES THEREOF” (BicycleTx Limited, priority 2019, published 2022):
“Also recorded” adds a separate entry of the source. Starred links: 1 amine or outer side, 2 acyl side, 3 side chain; linkers in the order of their positions; H or OH if unused. Non-standard residues stand in square brackets, D forms with d. Residues, ends and D or L forms follow the SMILES beside them. *: point of attachment. Dolaproine = CO[C@@H]([C@@H]1CCCN1)[C@@H](C)C(=O)O; Dil = CC[C@H](C)[C@H](NC)[C@@H](CC(=O)O)OC; PABC = O=C(OCc1ccc(N[*:1])cc1)[*:2]; X1 = O=C(CCCC(=O)*)ON1C(=O)CCC1=O; X2 = C[C@@H](N*)[C@@H](O)c1ccccc1; Cit = NC(=O)NCCC[C@H](N)C(=O)O; NMeV = CN[C@H](C(=O)O)C(C)C

How the values were obtained:
[1] = In vivo PK in PC-3 CDX model: LC-MS quantitation of MMAE and BT5528 in plasma and tumour (Example 4); design: species or system Mus Musculus; conditions: single i.v. dose of BT5528
Protocol: The objective of the research is to evaluate the in vivo PK/PD of test agents in treatment of PC-3 CDX model in Balb/c nude mice.
Each mouse was inoculated subcutaneously at the right flank with PC-3 tumor cells (10×10^6) in 0.2 mL of PBS for tumor development. The animals were randomized and dosed when the average tumor volume reached approximately 440 mm^3 for the PK/PD study. The test article administration and time points in each group were shown in the experimental design table.
Mice were randomly grouped based on tumor volume and dosed as experimental design. Plasma, serum, muscle and tumors were collected at 1 h, 2 h, 8 h, 24 h, 48 h, 72 h and 96 h post dosing.
Two protease inhibitor products were used: Complete™ mini EDTA-free protease inhibitor cocktail tablets and AEBSF (200 mM, prepared by dissolving 100 mg in water (2086 μL)). The AEBSF solution was stored at −20° C. when not in use. For the dilution of plasma, a solution (inhibitor solution A) was prepared by dissolving 12 Complete™ tablets in 50/50 methanol/water (12 mL) and adding 200 mM AEBSF (12 μL). […]
Samples, standards, QCs and blanks were transferred (10 μL diluted plasma, 30 μL tissue homogenate) to a 96-well plate on ice. […] The plate was mixed briefly and sealed ready for injection onto the LC-MS/MS. […]

[2] = test system: 15 low-passage Champions TumorGraft models of human non-small cell lung cancer; experiment: Panel of 15 NSCLC patient derived tumor xenografts (Champions PDX indication screen), overall; assay type: in vivo, Mus musculus; conditions: weekly 3 mpk
Protocol: This study was conducted to evaluate the in vivo antitumor activity of BT5528 as monotherapy in 15 low-passage Champions TumorGraft® models.
Mice were implanted subcutaneously into the left flank with tumor fragments from one of the various models. After tumors grew to an average of 150-300 mm^3, mice were treated by IV administration Q7Dx4 (n=2) with vehicle or 3 mg/kg of BT5528. Effects on tumor growth were evaluated by measuring percent tumor growth inhibition (% TGI), and the number of complete responders (CR), partial responders (PR), and tumor-free survivors (TFS). Tolerability was assessed by body weight loss, lethality, and clinical signs of adverse treatment-related side effects. Tumor volumes and body weights were measured twice a week. […]
Stock mice were implanted with tumor cells from Champions TumorGraft® models CTG-0160, CTG-0170, CTG-0178, CTG-0192, CTG-0363, CTG-0808, CTG-0838, CTG-0848, CTG-1212, CTG-1502, CTG-1535, CTG-2011, CTG-2393, CTG-2539 or CTG-2540. […] Tumor growth was monitored twice a week using digital calipers and the tumor volume (TV) was calculated using the formula (0.52×[length×width^2]). […] After the initiation of dosing on Day 0, animals were weighed twice per week using a digital scale and TV was measured twice per week and also on the final day of study. […]

## CC[C@H](C)[C@@H]([C@@H](CC(=O)N1CCC[C@H]1[C@H](OC)[C@@H](C)C(=O)N[C@H](C)[C@@H](O)c1ccccc1)OC)N(C)C(=O)[C@@H](NC(=O)[C@H](C(C)C)N(C)C(=O)OCc1ccc(NC(=O)[C@H](CCCNC(N)=O)NC(=O)[C@@H](NC(=O)CCCC(=O)ON2C(=O)CCC2=O)C(C)C)cc1)C(C)C [BT5528] (X1-V[Cit][PABC][NMeV]V[Dil][Dolaproine]-X2)
[1]
  MMAE concentrations in tumour: accumulation of MMAE in tumor tissue; also recorded: high MMAE concentrations in tumour, which is stable from 2h to >48h
  exposure of BT5528 and MMAE in plasma: short systemic exposure; also recorded: transient exposure of both BT5528 and MMAE in plasma
[2]
  models with tumor growth inhibition of 50% or more: 10 out of 15
